# Measured values reported in PMC4125281, “Capsid Protein VP4 of Human Rhinovirus Induces Membrane Permeability by the Formation of a Size-Selective Multimeric Pore” (PLoS Pathogens, 2014).
# *: point of attachment. Myristoyl = CCCCCCCCCCCCCC(=O)*
# B1: recombinant myristoylated human rhinovirus 16 VP4 with six histidines at the C-terminus (VP4His) (natural protein)
# chain: Myristoyl-MGAQVSRQNVGTHSTQNMVSNGSSLNYFNINYFKDAASSGASRLDFSQDPSKFTDPVKDVLEKGIPTLQ-{H2N-H2N-H2N-H2N-H2N-H2N}
# notes: capsid protein VP4 of human rhinovirus 16 (HRV16), the cut product VP4 of the genome polyprotein; native VP4 about 7.4 kDa, VP4His about 8.2 kDa; Plasmid pETVP4His (pET23d); also called recombinant VP4; not shown: His6, C-terminal, kept
# Legend:
# [1] = biological target: the molecule itself; test: cross-linking; VP4His incubated with liposomes (50 uM lipid) at 25 C for 1 hr, DSP 0.5 mM or 1 mM for 20 min at 25 C; non-reducing SDS-PAGE, western blot with antisera to VP4; cross-linking reversed with 50 mM DTT in some samples
# [2] = biological target: the molecule itself; test: SDS-PAGE without cross-linking (multimers that survive SDS); VP4His incubated with liposomes, no DSP (Fig. 5B lane 5); non-reducing SDS-PAGE, western blot with antisera to VP4
protein,measurement,setting,value
B1,stoichiometry N,[1],6
same,stoichiometry N,[2],2
